# Literature values, collected in PMC7723891.
# Biological target: Spike RBD (SARS-CoV-2) (UniProt P0DTC2)
# Assay: Biacore
substance,measurement,value
CD147 (from UniProt P35613),Kd,185 nM
